Paper PMC11460708 (PLOS Pathogens, 2024)

Tests used:
XBB.1.5 RBD = biological target: T1, XBB.1.5 RBD (SARS-CoV-2 Omicron XBB.1.5 (GISAID …, E484A (prototypic numbering) | F490S (prototypic numbering))); experiment: SPR; settings: both partners purified
T1 construct: not shown: His tag, C-terminal, kept

BA.1 RBD = biological target: T2, BA.1 RBD (SARS-CoV-2 Omicron BA.1 (GISAID …, strain)); experiment: SPR; settings: both partners purified
T2 construct: not shown: His tag, C-terminal, kept

B1: Nanosota-3C (VHH)
VHH: QVQLQESGGGLVQAGGSLRLSCAASGSIFSPNTMGWFRQALGKQREGVAFISSIASTSYWLPVKGRFTITRDNTKNTVHLQMNSLIPEDTAVYYCYAVDKSQDYWGQGTQVTVSS
B1 gave a Kd (XBB.1.5 RBD) of 2.04 nM and a Kd (BA.1 RBD) of 27.3 nM.
